From paper PMC11140114 (2024) come the findings set out here.

This experiment addresses recombinant human dynamin-related protein 1 (Drp1), isoform 1 (human, UniProt O00429 1-736). Kind of experiment: BLI. Background: In BLI a coated tip is dipped into the sample, and binding shifts an interference pattern.

As a reminder, the koff is the rate constant with which the complex falls apart.

recombinant human dynamin-related protein 1 (Drp1), isoform 1, sequence (O00429 whole entry, canonical isoform): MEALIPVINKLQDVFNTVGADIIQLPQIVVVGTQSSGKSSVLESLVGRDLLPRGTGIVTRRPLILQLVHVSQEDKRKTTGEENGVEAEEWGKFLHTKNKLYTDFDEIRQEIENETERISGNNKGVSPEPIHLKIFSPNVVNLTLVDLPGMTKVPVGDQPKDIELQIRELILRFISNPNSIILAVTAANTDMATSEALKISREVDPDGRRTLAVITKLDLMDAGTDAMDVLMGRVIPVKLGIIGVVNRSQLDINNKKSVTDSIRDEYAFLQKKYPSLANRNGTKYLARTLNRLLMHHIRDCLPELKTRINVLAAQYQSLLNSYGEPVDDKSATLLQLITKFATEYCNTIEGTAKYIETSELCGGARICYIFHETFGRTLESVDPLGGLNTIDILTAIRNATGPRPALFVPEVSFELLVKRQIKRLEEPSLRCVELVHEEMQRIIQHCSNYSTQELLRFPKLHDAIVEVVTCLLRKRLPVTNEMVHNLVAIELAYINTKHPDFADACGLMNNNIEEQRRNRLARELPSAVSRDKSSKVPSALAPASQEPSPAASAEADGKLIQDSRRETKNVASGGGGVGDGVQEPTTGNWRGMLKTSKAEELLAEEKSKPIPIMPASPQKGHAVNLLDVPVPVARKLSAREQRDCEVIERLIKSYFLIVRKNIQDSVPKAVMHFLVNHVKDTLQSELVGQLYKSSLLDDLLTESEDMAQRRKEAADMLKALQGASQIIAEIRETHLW

B1: Drp1-specific nanobody D63 (VHH)
VHH: QVQLVESGGDLVQPGGSLKLSCAVSGVSDSLSSFYLMAWHRQAPGKQREMIADIVSGKATYADSVKGRFTISRDNAENTAYLQMNSLKPEDTAVYYCNVLIQNRSTFQSYWGQGTQVTVSS
modifications: biotinylated for BLI (site not stated); covalently immobilised on NHS-activated sepharose via primary amino groups of accessible lysines for the nanotrap
As for B1, the koff came out at 0.000227 s⁻¹.

B2: Drp1-specific nanobody D7 (VHH)
VHH: QVQLVESGGGLVQPGGSLRLSCVASGFDFSTYSMTWHRQVLGKERELVASITPGGSRTNVADSVKGRFTISRDNAKNMLYLQMDRLKPEDTGMYYCAQGGYYAEPDYWGKGTRVTVSS
modifications: biotinylated for BLI (site not stated); covalently immobilised on NHS-activated sepharose via primary amino groups of accessible lysines for the nanotrap
In the case of B2, the koff worked out at 0.000117 s⁻¹.
